Among the data in paper PMC11157482 are oligomer dissociation half-life (in the presence of unlabeled WT fibrils) and stoichiometry N values, retold here.

The target in this test is Aβ42 wild-type (UniProt P05067). Nature of the test: fluorescence correlation spectroscopy (FCS); oligomers formed from S8C-Alexa488 and WT Aβ42 monomers 1:1.5 (labeled/unlabeled), about 10 μM total, 37 °C, stopped at t1/2; fibrils removed by centrifugation, oligomeric fraction isolated on Superdex 75; measured alone (three replicates) or with unlabeled WT fibrils (six replicates) 3-7 min after start, 37 °C, 20 mM sodium phosphate, 0.2 mM EDTA, pH 8.0; three-component fit (free dye, monomer, oligomer).

A word on the stoichiometry N: it is a count of units in the complex or per binding partner. Take Alexa-488-labeled Aβ42-S8C (peptide): the oligomer dissociation half-life (in the presence of unlabeled WT fibrils) was under 7 min and the stoichiometry N came out at 37 monomers.
